Measurements as given in IntAct's records for PubMed 18571423.

B1: Histone-binding protein RBBP7 (Homo sapiens), Q16576 (parent)
chain: MASKEMFEDTVEERVINEEYKIWKKNTPFLYDLVMTHALQWPSLTVQWLPEVTKPEGKDYALHWLVLGTHTSDEQNHLVVARVHIPNDDAQFDASHCDSDKGEFGGFGSVTGKIECEIKINHEGEVNRARYMPQNPHIIATKTPSSDVLVFDYTKHPAKPDPSGECNPDLRLRGHQKEGYGLSWNSNLSGHLLSASDDHTVCLWDINAGPKEGKIVDAKAIFTGHSAVVEDVAWHLLHESLFGSVADDQKLMIWDTRSNTTSKPSHLVDAHTAEVNCLSFNPYSEFILATGSADKTVALWDLRNLKLKLHTFESHKDEIFQVHWSPHNETILASSGTDRRLNVWDLSKIGEEQSAEDAEDGPPELLFIHGGHTAKISDFSWNPNEPWVICSVSEDNIMQIWQMAENIYNDEESDVTTSELEGQGS

Variants of: B1
Settings: with h4_human H4C16, P62805

Effect of a mutation on the interaction, disrupting interaction:
L30Y
L30Y;E356Q;D357N;E359Q;D360N
E356Q;D357N;E359Q;D360N
